Data: article PMC2953525, “Subtle Alterations in PCNA-Partner Interactions Severely Impair DNA Replication and Repair” (PLoS Biology, 2010)
Substitutions are numbered along the chain they refer to. Where no end group is shown, it is not given here.

Tests used:
[1] = molecular target: T1, pol30-Rad30E9, 6×Histidine-tagged (yeast, UniProt P15873 1-258, IDCL DIDADFLKIEEL to DNDWDFLKIDEL); test: SPR; ProteOn XPR36; WT or mutant PCNA (0.4 to 5.2 fmol) immobilised on a GLM chip by carbodiimide-activated succinimide coupling; PIP peptides 5–5,000 nM at 30 µl/min; peptide buffer 150 mM NaCl, 1 mM EDTA, 0.01% Tween-80, 30 mM Hepes, pH 7.5; conditions: both partners purified
T1 construct: PCNA (POL30), yeast, in pET28; also called Pol30-Rad30E9p; source: E. coli BL21, in cleared crude lysate (ELISA); purified by Ni-NTA (SPR)
T1 sequence: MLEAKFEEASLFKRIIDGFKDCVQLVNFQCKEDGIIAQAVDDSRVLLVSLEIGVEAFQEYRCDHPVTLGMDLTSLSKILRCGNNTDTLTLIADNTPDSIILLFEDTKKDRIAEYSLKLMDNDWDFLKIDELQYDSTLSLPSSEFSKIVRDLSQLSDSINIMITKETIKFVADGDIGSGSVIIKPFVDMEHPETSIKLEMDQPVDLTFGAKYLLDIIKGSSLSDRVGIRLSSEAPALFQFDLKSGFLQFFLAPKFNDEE

[2] = molecular target: T2, pol30-Pol32E9, 6×Histidine-tagged (yeast, UniProt P15873 1-258, IDCL DIDADFLKIEEL to DNDVDSLKIIEL); test: as above; conditions: both partners purified
T2 construct: PCNA (POL30), yeast, in pET28; source: E. coli BL21, in cleared crude lysate (ELISA); purified by Ni-NTA (SPR)
T2 sequence: T1 sequence with W123V, F125S, D129I

pol30-Ung1E3 = molecular target: T3, pol30-Ung1E3 (yeast, UniProt P15873 1-258, IDCL DIDADFLKIEEL to DFDYDELKIEEL); test: two-hybrid; quantitative Y2H: generation time of the YRG2 strains in liquid SC-Leu-Trp-His, given relative to cells expressing WT PCNA; average of at least 3 experiments; conditions: partners not purified
T3 construct: PCNA (POL30), yeast; source: yeast two-hybrid fusion (pAD-GAL4, strain YRG2)
T3 sequence: T1 sequence with N121F, W123Y, F125E, D129E

pol30-79 = molecular target: T4, pol30-79 (yeast, UniProt P15873 1-258, IDCL DIDADFLKIEEL to DIDADFAKAEEL); test: as above; conditions: partners not purified
T4 construct: PCNA (POL30), yeast; the changes are then L126A and I128A; also called PCNA79; source: yeast two-hybrid fusion (pAD-GAL4, strain YRG2)
T4 sequence: T1 sequence with N121I, W123A, L126A, I128A, D129E

pol30-Msh6E2 = molecular target: T5, pol30-Msh6E2 (yeast, UniProt P15873 1-258, IDCL DIDADFLKIEEL to DYDRDMLKISEL); test: as above; conditions: partners not purified
T5 construct: PCNA (POL30), yeast; source: yeast two-hybrid fusion (pAD-GAL4, strain YRG2)
T5 sequence: T1 sequence with N121Y, W123R, F125M, D129S

pol30-Msh6E6 = molecular target: T6, pol30-Msh6E6 (yeast, UniProt P15873 1-258, IDCL DIDADFLKIEEL to DYDKDLLKIIEL); test: as above; conditions: partners not purified
T6 construct: PCNA (POL30), yeast; source: yeast two-hybrid fusion (pAD-GAL4, strain YRG2)
T6 sequence: T1 sequence with N121Y, W123K, F125L, D129I

[3] = molecular target: T7, pol30-Ung1E3, 6×Histidine-tagged (yeast, UniProt P15873 1-258, IDCL DIDADFLKIEEL to DFDYDELKIEEL); test: SPR; ProteOn XPR36; WT or mutant PCNA (0.4 to 5.2 fmol) immobilised on a GLM chip by carbodiimide-activated succinimide coupling; PIP peptides 5–5,000 nM at 30 µl/min; peptide buffer 150 mM NaCl, 1 mM EDTA, 0.01% Tween-80, 30 mM Hepes, pH 7.5; conditions: both partners purified
T7 construct: PCNA (POL30), yeast, in pET28; source: E. coli BL21, in cleared crude lysate (ELISA); purified by Ni-NTA (SPR)
T7 sequence: T1 sequence with N121F, W123Y, F125E, D129E

[4] = molecular target: T8, pol30-Msh6E6, 6×Histidine-tagged (yeast, UniProt P15873 1-258, IDCL DIDADFLKIEEL to DYDKDLLKIIEL); test: as above; conditions: both partners purified
T8 construct: PCNA (POL30), yeast, in pET28; source: E. coli BL21, in cleared crude lysate (ELISA); purified by Ni-NTA (SPR)
T8 sequence: T1 sequence with N121Y, W123K, F125L, D129I

With QKKQVTSSKNILSFFTRKK (also: biotinylated, site not given here) [PIP peptide derived from Rad30] the “fold increase in binding affinity relative to WT PCNA (SPR)” value [1] was 8.5 fold.

In the case of QGTLESFFKRKAK (also: biotinylated, site not given here) [PIP peptide derived from Pol32], the “fold increase in binding affinity relative to WT PCNA (SPR)” value [2] is reported as 2 fold.

B1: Ung1 (natural protein, yeast, UniProt P12887 1-359, looked up)
chain: MWCMRRLPTNSVMTVARKRKQTTIEDFFGTKKSTNEAPNKKGKSGATFMTITNGAAIKTETKAVAKEANTDKYPANSNAKDVYSKNLSSNLRTLLSLELETIDDSWFPHLMDEFKKPYFVKLKQFVTKEQADHTVFPPAKDIYSWTRLTPFNKVKVVIIGQDPYHNFNQAHGLAFSVKPPTPAPPSLKNIYKELKQEYPDFVEDNKVGDLTHWASQGVLLLNTSLTVRAHNANSHSKHGWETFTKRVVQLLIQDREADGKSLVFLLWGNNAIKLVESLLGSTSVGSGSKYPNIMVMKSVHPSPLSASRGFFGTNHFKMINDWLYNTRGEKMIDWSVVPGTSLREVQEANARLESESKDP
notes: Ung1 (base excision repair), yeast; also called pBD-Ung1; source: yeast two-hybrid fusion (pBD-GAL4, strain YRG2)
In the case of B1, the “fold change in affinity relative to WT PCNA (Y2H generation time)” value (pol30-Ung1E3) is reported as 1.3 fold and the “fold change in affinity relative to WT PCNA (Y2H generation time)” value (pol30-79) is reported as 0.3 fold.

B2: Msh6 (natural protein, yeast, UniProt Q03834 1-1242, looked up)
chain: MAPATPKTSKTAHFENGSTSSQKKMKQSSLLSFFSKQVPSGTPSKKVQKPTPATLENTATDKITKNPQGGKTGKLFVDVDEDNDLTIAEETVSTVRSDIMHSQEPQSDTMLNSNTTEPKSTTTDEDLSSSQSRRNHKRRVNYAESDDDDSDTTFTAKRKKGKVVDSESDEDEYLPDKNDGDEDDDIADDKEDIKGELAEDSGDDDDLISLAETTSKKKFSYNTSHSSSPFTRNISRDNSKKKSRPNQAPSRSYNPSHSQPSATSKSSKFNKQNEERYQWLVDERDAQRRPKSDPEYDPRTLYIPSSAWNKFTPFEKQYWEIKSKMWDCIVFFKKGKFFELYEKDALLANALFDLKIAGGGRANMQLAGIPEMSFEYWAAQFIQMGYKVAKVDQRESMLAKEMREGSKGIVKRELQCILTSGTLTDGDMLHSDLATFCLAIREEPGNFYNETQLDSSTIVQKLNTKIFGAAFIDTATGELQMLEFEDDSECTKLDTLMSQVRPMEVVMERNNLSTLANKIVKFNSAPNAIFNEVKAGEEFYDCDKTYAEIISSEYFSTEEDWPEVLKSYYDTGKKVGFSAFGGLLYYLKWLKLDKNLISMKNIKEYDFVKSQHSMVLDGITLQNLEIFSNSFDGSDKGTLFKLFNRAITPMGKRMMKKWLMHPLLRKNDIESRLDSVDSLLQDITLREQLEITFSKLPDLERMLARIHSRTIKVKDFEKVITAFETIIELQDSLKNNDLKGDVSKYISSFPEGLVEAVKSWTNAFERQKAINENIIVPQRGFDIEFDKSMDRIQELEDELMEILMTYRKQFKCSNIQYKDSGKEIYTIEIPISATKNVPSNWVQMAANKTYKRYYSDEVRALARSMAEAKEIHKTLEEDLKNRLCQKFDAHYNTIWMPTIQAISNIDCLLAITRTSEYLGAPSCRPTIVDEVDSKTNTQLNGFLKFKSLRHPCFNLGATTAKDFIPNDIELGKEQPRLGLLTGANAAGKSTILRMACIAVIMAQMGCYVPCESAVLTPIDRIMTRLGANDNIMQGKSTFFVELAETKKILDMATNRSLLVVDELGRGGSSSDGFAIAESVLHHVATHIQSLGFFATHYGTLASSFKHHPQVRPLKMSILVDEATRNVTFLYKMLEGQSEGSFGMHVASMCGISKEIIDNAQIAADNLEHTSRLVKERDLAANNLNGEVVSVPGGLQSDFVRIAYGDGLKNTKLGSGEGVLNYDWNIKRNVLKSLFSIIDDLQS
notes: Msh6 (mismatch repair), yeast; also called pBD-Msh6; source: yeast two-hybrid fusion (pBD-GAL4, strain YRG2)
In the case of B2, the “fold change in affinity relative to WT PCNA (Y2H generation time)” value (pol30-Msh6E2) is reported as 1.4 fold, the “fold change in affinity relative to WT PCNA (Y2H generation time)” value (pol30-79) is reported as 0.4 fold and the “fold change in affinity relative to WT PCNA (Y2H generation time)” value (pol30-Msh6E6) is reported as 1.4 fold.

With QTTIEDFF (also: biotinylated, site not given here) [PIP peptide derived from Ung1] the “fold increase in binding affinity relative to WT PCNA (SPR)” value [3] was 3.5 fold.

For QSSLLSFF (also: biotinylated, site not given here) [PIP peptide derived from Msh6], the “fold increase in binding affinity relative to WT PCNA (SPR)” value [4] was 1.6 fold.
